Starred links: 1 amine or outer side, 2 acyl side, 3 side chain; linkers in the order of their positions; H or OH if unused. Positions of bridges follow the written chain, without caps; N, C: chain ends. Non-standard residues stand in square brackets, D forms with d. Primed or numbered codes have the meaning given here. B5(17) = 2,2-bis(4-pentenyl)glycine = 2-amino-2-(pent-4-en-1-yl)hept-6-enoic acid, stitching residue, C=CCCCC(CCCC=C)(N[*:1])C(=O)[*:2]; B5(4) = 2,2-bis(4-pentenyl)glycine = 2-amino-2-(pent-4-en-1-yl)hept-6-enoic acid (stitching residue), C=CCCCC(CCCC=C)(N[*:1])C(=O)[*:2]; PyrS = (S)-1-((allyloxy)carbonyl)-3-aminopyrrolidine-3-carboxylic acid, C=CCOC(=O)N1CC[C@@](N[*:1])(C(=O)[*:2])C1; 6F1NapA = 2-amino-3-(6-fluoronaphthalen-1-yl)propanoic acid, O=C([C@H](Cc1cccc2cc(F)ccc12)N[*:1])[*:2]; Trp(5-cPr) = 5-cyclopropyl-L-tryptophan (5CpW), O=C([C@H](Cc1c[nH]c2ccc(C3CC3)cc12)N[*:1])[*:2]; B5 = 2-amino-2-(pent-4-en-1-yl)hept-6-enoic acid, C=CCCCC(CCCC=C)(N[*:1])C(=O)[*:2]; Trp(5-CF3) = N[C@@H](Cc1c[nH]c2ccc(C(F)(F)F)cc12)C(=O)O; hTyr = N[C@@H](CCc1ccc(O)cc1)C(=O)O; αAllylPro = C=CC[C@@]1(C(=O)O)CCCN1; hPhe = N[C@@H](CCc1ccccc1)C(=O)O; 4Pal = N[C@@H](Cc1ccncc1)C(=O)O; R8 = C=CCCCCCC[C@@](C)(N)C(=O)O; S8 = C=CCCCCCC[C@](C)(N)C(=O)O
T1: full-length beta-Catenin (Uniprot ID P35222) (Homo sapiens (Human), UniProt P35222 1-781)
T1 construct: The assay protocols call it full-length; also called B-Catenin; bCat
T1 sequence: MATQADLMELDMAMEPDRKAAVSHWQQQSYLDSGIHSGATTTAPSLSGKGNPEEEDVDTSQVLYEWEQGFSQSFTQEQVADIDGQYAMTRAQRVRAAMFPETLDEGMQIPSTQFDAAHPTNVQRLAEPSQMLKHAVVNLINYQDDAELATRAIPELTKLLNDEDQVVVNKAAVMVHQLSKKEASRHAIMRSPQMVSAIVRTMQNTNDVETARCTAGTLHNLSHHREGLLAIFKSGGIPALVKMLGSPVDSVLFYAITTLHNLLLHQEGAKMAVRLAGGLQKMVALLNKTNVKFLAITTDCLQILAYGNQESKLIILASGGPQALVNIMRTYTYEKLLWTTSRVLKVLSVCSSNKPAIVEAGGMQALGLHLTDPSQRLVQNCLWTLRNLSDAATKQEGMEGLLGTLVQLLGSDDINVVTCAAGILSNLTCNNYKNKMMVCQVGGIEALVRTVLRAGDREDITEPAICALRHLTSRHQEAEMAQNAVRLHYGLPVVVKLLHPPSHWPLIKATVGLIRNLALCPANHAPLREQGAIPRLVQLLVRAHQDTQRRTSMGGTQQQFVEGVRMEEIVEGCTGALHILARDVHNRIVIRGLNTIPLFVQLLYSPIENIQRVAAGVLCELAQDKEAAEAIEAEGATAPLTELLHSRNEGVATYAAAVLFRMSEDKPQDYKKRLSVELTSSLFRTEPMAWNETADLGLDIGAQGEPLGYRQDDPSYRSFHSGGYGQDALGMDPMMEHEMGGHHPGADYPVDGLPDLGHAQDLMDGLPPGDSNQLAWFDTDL

T2: full-length beta-Catenin (Uniprot ID P35222) (Homo sapiens (Human), UniProt P35222 1-781)
T2 construct: The assay text says 'full-length beta-Catenin (Uniprot ID P35222)'; also called bCat; B-Catenin
T2 sequence: T1 sequence

T3: full-length beta-Catenin (Uniprot ID P35222) (Homo sapiens (Human), UniProt P35222 2-781)
T3 construct: the AlphaScreen assay uses a Histidine (Nickel Chelate) detection kit, so a His tag is likely there; also called B-Catenin; bCat
T3 sequence: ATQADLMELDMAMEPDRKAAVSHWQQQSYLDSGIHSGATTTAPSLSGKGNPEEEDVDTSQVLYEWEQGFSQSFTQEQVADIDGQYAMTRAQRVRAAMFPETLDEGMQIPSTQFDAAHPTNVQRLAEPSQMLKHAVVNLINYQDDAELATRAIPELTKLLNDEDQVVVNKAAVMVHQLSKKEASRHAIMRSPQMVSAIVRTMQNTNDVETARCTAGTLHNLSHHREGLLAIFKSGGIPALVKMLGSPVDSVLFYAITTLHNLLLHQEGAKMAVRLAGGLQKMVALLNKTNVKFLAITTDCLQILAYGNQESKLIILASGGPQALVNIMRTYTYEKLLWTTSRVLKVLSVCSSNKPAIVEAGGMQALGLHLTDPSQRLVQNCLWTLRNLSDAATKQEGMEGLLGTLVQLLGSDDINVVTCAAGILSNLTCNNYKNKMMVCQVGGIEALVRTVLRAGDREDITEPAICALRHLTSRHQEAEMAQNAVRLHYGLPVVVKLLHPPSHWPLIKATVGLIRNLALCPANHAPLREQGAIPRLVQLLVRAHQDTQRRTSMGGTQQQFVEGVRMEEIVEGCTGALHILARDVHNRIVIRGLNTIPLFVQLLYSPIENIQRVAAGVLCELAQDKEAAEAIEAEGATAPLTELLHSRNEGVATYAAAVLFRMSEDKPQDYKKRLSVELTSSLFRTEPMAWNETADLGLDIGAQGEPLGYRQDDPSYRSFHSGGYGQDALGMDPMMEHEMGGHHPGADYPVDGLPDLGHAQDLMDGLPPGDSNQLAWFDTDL

B1: I-282 (peptide)
peptide: XDAXEDAAFVXFWQ
modifications: not fully specified; N-terminal Ac; PL3 at 1; B5 at 4; S8 at 11; C-terminal NH2; staples PL3(1)-B5(4) and B5(4)-S8(11) by olefin metathesis
notes: Stapled (stitched) peptide; also called Ac-PL3-Asp-Ala-B5-Glu-Asp-Ala-Ala-Phe-Val-S8-Phe-Trp-Gln-NH2
B2: I-281 (peptide)
peptide: XDAXEDAAFVXFWQ
modifications: not fully specified; N-terminal Ac; PL3 at 1; B5 at 4; S8 at 11; C-terminal NH2; staples PL3(1)-B5(4) and B5(4)-S8(11) by olefin metathesis
notes: as for B1
B3: I-279 (peptide)
peptide: XEAXDDAAFVXFWQ
modifications: not fully specified; N-terminal Ac; PL3 at 1; B5 at 4; S8 at 11; C-terminal NH2; staples PL3(1)-B5(4) and B5(4)-S8(11) by olefin metathesis
notes: Stapled (stitched) peptide; also called Ac-PL3-Glu-Ala-B5-Asp-Asp-Ala-Ala-Phe-Val-S8-Phe-Trp-Gln-NH2
B4: I-283 (peptide)
peptide: Ac-[αAllylPro]DA[B5(4)]DDAAFV[S8]DWQ-NH2
modifications: staple 1-4, 4-11
notes: Stapled (stitched) peptide; also called Ac-PL3-Asp-Ala-B5-Asp-Asp-Ala-Ala-Phe-Val-S8-Asp-Trp-Gln-NH2
B5: I-274 (peptide)
peptide: Ac-[αAllylPro]DA[B5(4)]DYAAFV[S8]FWQ-NH2
modifications: staple 1-4, 4-11
notes: Stapled (stitched) peptide; also called Ac-PL3-Asp-Ala-B5-Asp-Tyr-Ala-Ala-Phe-Val-S8-Phe-Trp-Gln-NH2
B6: I-273 (peptide)
peptide: Ac-[αAllylPro]DA[B5(17)]D[hTyr]AAFV[S8]FWQ-NH2
modifications: staple 1-4, 4-11
notes: Stapled (stitched) peptide; also called Ac-PL3-Asp-Ala-B5-Asp-hTyr-Ala-Ala-Phe-Val-S8-Phe-Trp-Gln-NH2
B7: I-269 (peptide)
peptide: Ac-[αAllylPro]DA[B5(17)]DDAAFV[S8][hTyr]WQ-NH2
modifications: staple 1-4, 4-11
notes: Stapled (stitched) peptide; also called Ac-PL3-Asp-Ala-B5-Asp-Asp-Ala-Ala-Phe-Val-S8-hTyr-Trp-Gln-NH2
B8: I-268 (peptide)
peptide: Ac-[αAllylPro]DA[B5(17)]DDAAFV[S8][hPhe]WQ-NH2
modifications: staple 1-4, 4-11
notes: Stapled (stitched) peptide; also called Ac-PL3-Asp-Ala-B5-Asp-Asp-Ala-Ala-Phe-Val-S8-hPhe-Trp-Gln-NH2
B9: I-256 (peptide)
peptide: Ac-[αAllylPro]DA[B5(4)]D[6F1NapA]AAFV[S8]FWQ-NH2
modifications: staple 1-4, 4-11
notes: Stapled (stitched) peptide; also called Ac-PL3-Asp-Ala-B5-Asp-6F1NapA-Ala-Ala-Phe-Val-S8-Phe-Trp-Gln-NH2
B10: I-272 (peptide)
peptide: Ac-[αAllylPro]DA[B5(17)]D[4Pal]AAFV[S8]FWQ-NH2
modifications: staple 1-4, 4-11
notes: Stapled (stitched) peptide; also called Ac-PL3-Asp-Ala-B5-Asp-4PyrA-Ala-Ala-Phe-Val-S8-Phe-Trp-Gln-NH2
B11: I-579 (peptide)
peptide: Ac-FDA[R8]DDAAFQ[PyrS]FWQ-NH2
modifications: staple 4-11; not fully specified; printed as Ac-Phe-Asp-Ala-R8-Asp-Asp-Ala-Ala-Phe-Gln-PyrS-Phe-Trp-Gln-NH2
notes: Stapled peptide composition
B12: I-578 (peptide)
peptide: XDAXDDAAFQXFXQ
modifications: not fully specified; Ac-PL3-Asp-Ala-B5-Asp-Asp-Ala-Ala-Phe-Gln-S8-Phe-BztA-Gln-NH2; stapled PL3(1)-B5(4) and B5(4)-S8(11) by olefin metathesis
notes: Stapled peptide composition; the description may be misprinted
B13: I-577 (peptide)
peptide: XDLXDEAAFNXFXQ
modifications: not fully specified; Ac-PL3-Asp-Leu-B5-Asp-Glu-Ala-Ala-Phe-Asn-S8-Phe-BztA-Gln-NH2; stapled PL3(1)-B5(4) and B5(4)-S8(11) by olefin metathesis
notes: Stapled peptide composition; same description as I-576, later eluting HPLC peak (staple isomer)
B14: I-576 (peptide)
peptide: XDLXDEAAFNXFXQ
modifications: not fully specified; Ac-PL3-Asp-Leu-B5-Asp-Glu-Ala-Ala-Phe-Asn-S8-Phe-BztA-Gln-NH2; stapled PL3(1)-B5(4) and B5(4)-S8(11) by olefin metathesis
notes: Stapled peptide composition; same description as I-577, earlier eluting HPLC peak (staple isomer)
B15: I-171 (peptide)
peptide: XDAXDEAAFVXFXQ
modifications: not fully specified; as printed: Ac-PL3-Asp-Ala-B5-Asp-Glu-Ala-Ala-Phe-Val-S8-Phe-5CpW-Gln-NH2; N-terminal acetyl, C-terminal amide; PL3(1), B5(4), S8(11), 5CpW(13); staples PL3-B5 and B5-S8 by olefin metathesis
notes: stapled peptide

molecular target: T1, full-length beta-Catenin (Uniprot ID …); assay: AlphaScreen competition; full-length beta-catenin with biotin-labelled TCF4 10-53 peptide as competitor
Protocol: (§1) Equal volume of the titrated peptide was added to the plate and incubated for 15 minutes at 20° C. Then 4 uL of donor and 4 uL acceptor beads at 10 ug/mL were added to the plate, for a 16 uL reaction pool and protected from light for 60 minutes at 20° C. prior to read. Reads were performed on a CLARIOstar plate reader (BMG Labtech) in duplicate, and data were fitted to a 1:1 binding model with hill slope using an in-house script. All provided concentrations are final concentrations.

EC50 [µM] | Binder
3.53 | B1
6.26 | B2
4.96 | B3
9.54 | B4
2.35 | B5
1.89 | B6
5.31 | B7
4 | B8
9.21 | B9
1.01 | B10

molecular target: T2, full-length beta-Catenin (Uniprot ID …); assay: fluorescence polarization competition; full-length beta-catenin, competitor 5FAM-TCF4(10-53) probe
Protocol: The plate was incubated protected from light for 60 minutes at 20° C. prior to read. Reads were performed on a CLARIOstar plate reader (BMG Labtech) in duplicate, and data were fitted to a 1:1 binding model with hill slope using an in-house script. All provided concentrations are final concentrations.

EC50 [µM] | Binder
5 | B11
5 | B12
0.013 | B13
0.023 | B14

molecular target: T3, full-length beta-Catenin (Uniprot ID …); assay: AlphaScreen competition; full-length beta-catenin with biotin-TCF4(10-53) probe as competitor
Protocol: as §1

EC50 [µM] | Binder
9.21 | Ac-[αAllylPro]DA[B5]DEAAFV[S8]F[Trp(5-CF3)]Q-NH2 (staple 1-4, 4-11, stapled peptide composition) [I-169]
4.67 | Ac-[αAllylPro]DA[B5]DEAAFV[S8]F[Trp(5-cPr)]Q-NH2 (staple 1-4, 4-11, stapled peptide) [I-170]
2.07 | B15
